Laboratory results: patent publication US20220409550A1

How the values were obtained:
[1] = molecular target: murine PD-L1 on CHO-K1 cells (murine) (UniProt Q9EP73); assay: cell-based or functional assay
[2] = molecular target: murine PD-L1 (50010-M08H, Sino biological) (murine) (UniProt Q9EP73); assay: SPR
[3] = molecular target: murine PD-L2 (50804-M08H, Sino Biological) (murine) (UniProt Q9WUL5); assay: SPR
Sequence of murine PD-L2 (50804-M08H, Sino Biological) (murine) (Q9WUL5 20-219, stated change not applied): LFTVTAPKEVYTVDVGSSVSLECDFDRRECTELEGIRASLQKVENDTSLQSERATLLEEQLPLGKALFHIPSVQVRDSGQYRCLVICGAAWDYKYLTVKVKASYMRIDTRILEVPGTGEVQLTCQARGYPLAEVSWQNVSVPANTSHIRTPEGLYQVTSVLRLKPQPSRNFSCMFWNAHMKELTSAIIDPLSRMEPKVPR

Sequence of murine PD-L1 on CHO-K1 cells (murine) (Q9EP73 19-290): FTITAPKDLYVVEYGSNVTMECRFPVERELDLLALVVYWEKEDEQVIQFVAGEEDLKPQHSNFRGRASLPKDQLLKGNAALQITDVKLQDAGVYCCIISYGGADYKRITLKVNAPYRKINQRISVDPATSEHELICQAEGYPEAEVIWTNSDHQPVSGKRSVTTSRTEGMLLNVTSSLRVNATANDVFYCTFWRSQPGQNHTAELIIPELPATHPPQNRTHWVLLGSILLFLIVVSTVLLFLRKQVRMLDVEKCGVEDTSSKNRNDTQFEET
Sequence of murine PD-L1 (50010-M08H, Sino biological) (murine) (Q9EP73 19-238, stated change not applied): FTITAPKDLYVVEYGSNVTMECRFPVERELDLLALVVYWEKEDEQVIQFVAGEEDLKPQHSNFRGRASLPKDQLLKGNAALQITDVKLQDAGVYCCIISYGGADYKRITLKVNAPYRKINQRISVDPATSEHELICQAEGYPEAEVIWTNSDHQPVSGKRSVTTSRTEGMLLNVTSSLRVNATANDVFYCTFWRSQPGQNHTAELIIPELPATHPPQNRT

- half maximal effective concentration (EC50), NFAT-mediated luciferase expression, bioluminescent PD-1/PD-L1 blockade bioassay [1]: 0.761 nM
- Kd [2]: 3.81E-10 ?
- Kd [3]: 2.07E-9 ?
Substance: PD-1-decorated nanocage (PdNC) (from UniProt P02794 1-183)
